Experiments:
[1] = target: T1, HA-tagged human APOBEC3A (A3A-HA) (human, UniProt P31941 1-199); assay: immunoblot of 293T lysates with A3-HA proteins (FIG. 3), hybridoma supernatant
T1 construct: Expressed by transient transfection in 293T cells; lysate resolved by SDS-PAGE (denatured) for the immunoblot; not shown: HA tag
Description: (§1) Cell lysates from 293T cells transiently transfected with each HA-tagged APOBEC3 protein (A3A-HA, A3B-HA, A3C-HA, A3D-HA, A3F-HA, A3G-HA, A3H-HA) or the expression vector alone were resolved by 12% SDS-PAGE and transferred to PVDF membrane. […] Membranes were further probed with the appropriate secondary antibodies including anti-rabbit IgG IR800CW (Odyssey 926-32211, LI-COR Biosciences, Lincoln, Nebr.) 1/20,000 or anti-mouse IgG IR800CW (Odyssey 827-08364, LI-COR Biosciences, Lincoln, Nebr.) 1/20,000 in 50% Blok (WBAVDP001, Millipore, Darmstadt, Germany) in PBS-T, (PBS, 0.1% Tween-20) and images were generated using LI-COR imaging (LI-COR Biosciences, Lincoln, Nebr.).

[2] = target: T2, HA-tagged human APOBEC3B (A3B-HA) (human, UniProt Q9UH17 1-382); assay: hybridoma screening (ELISA-positive clones, then immunoblot of A3-HA lysates and immunofluorescence)
T2 construct: Expressed by transient transfection in 293T cells; lysate resolved by SDS-PAGE (denatured) for the immunoblot; not shown: HA tag
T2 sequence (Q9UH17 whole entry): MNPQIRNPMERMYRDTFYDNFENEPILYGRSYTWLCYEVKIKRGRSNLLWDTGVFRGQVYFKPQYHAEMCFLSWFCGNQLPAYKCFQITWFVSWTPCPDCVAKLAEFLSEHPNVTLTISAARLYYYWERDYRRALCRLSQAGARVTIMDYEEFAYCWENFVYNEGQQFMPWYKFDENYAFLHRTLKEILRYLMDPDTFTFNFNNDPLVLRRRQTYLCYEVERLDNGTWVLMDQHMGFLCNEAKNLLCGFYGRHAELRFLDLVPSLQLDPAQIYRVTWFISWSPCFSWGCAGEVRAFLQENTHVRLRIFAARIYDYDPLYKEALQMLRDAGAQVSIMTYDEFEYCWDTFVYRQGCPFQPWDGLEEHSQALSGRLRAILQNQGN

[3] = target: T2, HA-tagged human APOBEC3B (A3B-HA); assay: immunoblot of 293T lysates with A3-HA proteins (FIG. 3), hybridoma supernatant
Description: as §1

[4] = target: T3, endogenous human APOBEC3B (A3B) of cancer cell lines (human, UniProt Q9UH17 1-382); assay: intracellular flow cytometry, OVCAR5 and MDA-MB-468 cells with control or A3B shRNA
T3 construct: whole, on cells; Untagged endogenous, intracellular protein: detected in fixed and permeabilised cells (immunofluorescence, flow cytometry) and in cell lysates (immunoblot); also called endogenous A3B
T3 sequence (Q9UH17 whole entry): as above
Protocol: OVCAR5 (Monks et al., 1991, J. Natl. Cancer Inst. 83:757-766) and MDA-MB-468 (ATCC HTB-132, ATCC, Manassas, Va.) cells were transduced with lentiviruses encoding either a control or A3B-specific shRNA. Following drug selection (puromycin), cells were fixed in 1% paraformaldehyde and permeabilized in cold methanol. […] After a single PBS wash to remove unbound antibody, cells were analyzed on a flow cytometer.

T1 sequence (P31941 whole entry): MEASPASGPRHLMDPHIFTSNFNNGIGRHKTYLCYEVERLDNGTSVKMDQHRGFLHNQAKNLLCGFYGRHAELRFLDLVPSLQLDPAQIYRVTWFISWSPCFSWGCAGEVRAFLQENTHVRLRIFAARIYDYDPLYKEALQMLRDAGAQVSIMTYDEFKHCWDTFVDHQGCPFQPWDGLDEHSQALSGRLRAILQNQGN

Row | binding result [1] | binding result [2] | binding result [3] | binding result [4] | Binder
1 | binds | binds |  |  | monoclonal antibody produced by hybridoma cell line 5210-08-15 (antibody, V domains shown, Rabbit monoclonal antibody, tested as hybridoma culture supernatant; The Ig chain entries come from cDNA and may include a leader peptide; no cleavage site stated) VH: QEQLEESGGGLVKPGGTLTLTCKASGFSFSDGYWMCWIRQAPGKGLEWIGCIYDASGGAYFPSWAKGRFTISKTSSTTVTLEMTSLTDADTAIYFCVKTDYGSSKLWGPGTLVTVSS VL: AVVLTQTASPVSAPVGGTVTINCQASQNIYSNLAWYQQKPGQPPKLLIYGASTLASGVSSRFKGSRSGTEFTLTISDLECADAATYYCQSYVYSSSTADTFGGGTKVVVEV
2 | binds |  | binds | binds | monoclonal antibody produced by hybridoma cell line 5210-87-13 (antibody, V domains shown, Rabbit monoclonal antibody; hybridoma supernatant in the screens, mAb preparation in the work on endogenous A3B; The Ig chain entries come from cDNA and may include a leader peptide; no cleavage site stated) VH: QSVKESEGGLFKPTDTLTLTCTVSGFSLSSYRMHWVRQAPGNGLEWIGSISSGGNAAYARWANTRSTITRNTNLNTVTLKMTSLTAADTATYFCGSNVIWGPGTLVTVSS VL: DPVLTQTPSSVSAAVGGTVTISCQSSESVFKKNWLAWYHQKPGQSPKRLIYGASTLESGAPSRFRGSGSGTQFTLTISDLECGDAATYYCAGAFDGNIYPFGGGTEVVVKG
